Reference: the supplement of paper PMC9112550, “Optimization of the antimicrobial peptide Bac7 by deep mutational scanning” (BMC Biology, 2022)

Test system: Escherichia coli TOP10
Assay: shrunken log2 fold change of peptide-encoding DNA abundance (4.5 h post-induction vs induction); higher = less antimicrobial activity (less host growth inhibition)
Details: time post-induction: 4.5 h; library: site-saturation at positions 5, 18, 19, 20
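Further: peptides expressed intracellularly from a pBAD plasmid library in pooled LB shake-flask culture, induced with 0.3% L-arabinose, DNA abundance read by NGS, three biological replicates, DESeq2 with apeglm shrinkage.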

Sequence | shrunken log2 fold change
RRIRDRPPRLPRPRPRPSECPRP | -0.043
RRIRNRPPRLPRPRPRPNFDPRP | 0.215
RRIRERPPRLPRPRPRPHPNPRP | -0.0522
RRIRGRPPRLPRPRPRPTTKPRP | 1
RRIRWRPPRLPRPRPRPSNWPRP | 0.135
RRIRARPPRLPRPRPRPKLKPRP | 0.272
RRIRTRPPRLPRPRPRPGMVPRP | 0.279
RRIRQRPPRLPRPRPRPGVPPRP | 0.154
RRIRDRPPRLPRPRPRPPGMPRP | 0.201
RRIRWRPPRLPRPRPRPSKWPRP | -0.327
RRIRWRPPRLPRPRPRPRIEPRP | 0.186
RRIRIRPPRLPRPRPRPIIQPRP | -0.455
RRIRTRPPRLPRPRPRPQSGPRP | 0.00577
RRIRHRPPRLPRPRPRPNYKPRP | -0.603
RRIRARPPRLPRPRPRPQCNPRP | -0.104
RRIRARPPRLPRPRPRPECTPRP | 1.05
RRIRERPPRLPRPRPRPNVAPRP | -0.186
RRIRIRPPRLPRPRPRPYPEPRP | -0.0522
RRIRARPPRLPRPRPRPGPCPRP | 0.251
RRIRTRPPRLPRPRPRPHYQPRP | -0.782
RRIRGRPPRLPRPRPRPTGYPRP | 0.559
RRIRLRPPRLPRPRPRPCLVPRP | 0.127
RRIRQRPPRLPRPRPRPMTSPRP | -0.000946
RRIRCRPPRLPRPRPRPMGGPRP | 0.145
RRIRSRPPRLPRPRPRPEFLPRP | 0.278

Sequence | shrunken log2 fold change
RRIRIRPPRLPRPRPRPDEFPRP | 0.0764
RRIRRRPPRLPRPRPRPSFRPRP | -0.0185
RRIRARPPRLPRPRPRPSEMPRP | 0.29
RRIRARPPRLPRPRPRPLSYPRP | -0.00336
RRIRVRPPRLPRPRPRPREVPRP | 0.089
RRIRTRPPRLPRPRPRPNEMPRP | -0.235
RRIRSRPPRLPRPRPRPHWPPRP | 0.341
RRIRFRPPRLPRPRPRPGNKPRP | -0.344
RRIRRRPPRLPRPRPRPCSKPRP | -0.123
RRIRLRPPRLPRPRPRPHFLPRP | -0.499
RRIRIRPPRLPRPRPRPQVDPRP | 0.0508
RRIRFRPPRLPRPRPRPTILPRP | -0.453
RRIRVRPPRLPRPRPRPMYHPRP | -0.0185
RRIRFRPPRLPRPRPRPLKLPRP | -0.147
RRIRLRPPRLPRPRPRPQNYPRP | -0.626
RRIRSRPPRLPRPRPRPDKIPRP | 0.11
RRIRSRPPRLPRPRPRPYITPRP | -0.535
RRIRIRPPRLPRPRPRPDNEPRP | -0.117
RRIRSRPPRLPRPRPRPYHKPRP | -0.404
RRIRDRPPRLPRPRPRPWHWPRP | 0.00118
RRIRIRPPRLPRPRPRPRERPRP | 0.688
RRIRKRPPRLPRPRPRPSQEPRP | -0.0223
RRIRERPPRLPRPRPRPCCAPRP | 0.112
RRIRRRPPRLPRPRPRPQRFPRP | 0.294
RRIRMRPPRLPRPRPRPYRFPRP | -0.118
